Molecular target: α-amylase
Test: cell-based or functional assay

α-amylase inhibition activity (colorimetric α-amylase inhibition assay): 2 fold
Substance: thioredoxin/90-mer ELP/tendamistat fusion protein (from UniProt P01092 31-104)

From patent publication US20050255554A1
